Experimental data: paper PMC7137382, “Structure of the Mycobacterium smegmatis α-maltose-1-phosphate synthase GlgM” (Acta Crystallographica. Section F, Structural Biology …, 2020)

Molecular target: the molecule itself
Experiment: SEC; Superdex 200 10/300 GL, 50 mM bis-Tris pH 6.0, 5 mM MgCl2, 100 mM NaCl

B1: α-maltose-1-phosphate synthase GlgM from Mycobacterium smegmatis (enzyme, Mycobacterium smegmatis mc2155)
chain: MRVAMMTREYPPEVYGGAGVHVTELVAQLRKLCDVDVHCMGAPRDGAYVAHPDPTLRGANAALTMLSADLNMVNNAEAATVVHSHTWYTGLAGHLASLLYGVPHVLTAHSLEPLRPWKAEQLGGGYQVSSWVERTAVEAADAVIAVSSGMRDDVLRTYPALDPDRVHVVRNGIDTTVWYPAEPGPDESVLAELGVDLNRPIVAFVGRITRQKGVAHLVAAAHRFAPDVQLVLCAGAPDTPQIAEEVSSAVQQLAQARTGVFWVREMLPTHKIREILSAATVFVCPSVYEPLGIVNLEAMACATAVVASDVGGIPEVVADGRTGLLVHYDANDTEAYEARLAEAVNSLVADPDRAREYGVAGRERCIEEFSWAHIAEQTLEIYRKVSA
notes: GlgM (glgM gene, MSMEG_5080) from M. smegmatis mc2155, synthesised with codon usage for E. coli; A TEV cleavage site lies between the N-terminal 6×His tag and the protein; also called M. smegmatis GlgM; source: E. coli BL21 Star, purified (HisTrap FF, imidazole gradient); not shown: 6×His, N-terminal, kept
- stoichiometry N: 2
